The target of assay [1] is endogenous Fas of Jurkat cells (human) (UniProt P25445). In words: cell-based or functional assay.
Assay [2] addresses T1, Fas trimerization in Jurkat cells (Homo sapiens, UniProt P25445).
T1 construct: endogenous in cells; host or cells: Jurkat
T1 sequence (P25445 26-335): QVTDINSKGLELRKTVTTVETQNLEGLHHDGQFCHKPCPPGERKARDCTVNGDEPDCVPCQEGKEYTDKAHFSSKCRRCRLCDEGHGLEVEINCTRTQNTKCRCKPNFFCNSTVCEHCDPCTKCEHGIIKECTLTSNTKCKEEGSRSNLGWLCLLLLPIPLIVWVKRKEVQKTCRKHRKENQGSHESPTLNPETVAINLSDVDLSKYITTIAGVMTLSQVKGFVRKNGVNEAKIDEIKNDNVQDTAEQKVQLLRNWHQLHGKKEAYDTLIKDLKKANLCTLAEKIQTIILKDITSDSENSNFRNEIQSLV
In words: Chemical crosslinking (DTSSP) and Western blot of Fas trimerization in Jurkat cells. Format: cell-based. The conditions noted are these: Fas Ligand 2 μg/ml, DTSSP. How it is done:
FIG. 3a presents data collected from Jurkat cells (1×10^6) treated with 2 μg/ml of Fas Ligand with or without AlphaMet for 30 minutes on ice. Cells were washed with PBS twice and then incubated with 2 mM of DTSSP in PBS for 30 minutes. The crosslinking process was stopped by 20 mM of Tris (pH 7.5) for another 30 minutes. Cells were spun down and washed with PBS twice and lyzed in RIPA buffer. Cell lysates were subjected to SDS-PAGE under non-reducing or reducing conditions (FIG. 3b) and Western blot analysis using the mouse monoclonal antibody against human Fas. FIG. 3c depicts the quantification of the data in FIG. 3a by densitometry. The data are the mean and SE from three different independent crosslinking and Western blot experiments. […] Frame A: Acceptor CFP-Fas image; Frame B: Acceptor pre-bleach CFP-Fas image; Frame C: Acceptor post-bleach image. Frame D: Donor YFP-Fas image; Frame E: Donor pre-bleach image; Frame F: […]. The CFP-Fas strength in the selected region obtained a gain of 19.3% efficiency in the presence of FasL for 15 minutes. No FRET was observed without FasL. […] FIG. 3e depicts the results of experiments in which CFP-tagged Fas or CFP control vector were transiently expressed in Hepa 1-6 Cells (3×10^5). […] Cells were fixed and analyzed by fluorescence microscopy. […]
For orientation: A western blot detects proteins with antibodies after separation by electrophoresis.

For a further assay, the system named is Jurkat cells. Kind of assay: Fas-ligand induced apoptosis in Jurkat cells (Trypan Blue, flow cytometry). Format: cell-based, human. Here is the method:
For FIG. 4a, Jurkat cells (1.5×10^5) were overnight treated in triplicate with 5 ng/ml of crosslinked human Fas ligand with or without 5 μg/ml of recombinant AlphaMet or 1 μg/ml of the indicated polypeptides. Percent apoptosis was determined by Trypan Blue staining using a hemocytometer. The data are representative and were repeated at least four times. […] The 17 kDa fragment of cleaved Caspase 3 is visualized by this antibody. The blot was reprobed for β-actin as a loading control. For FIG. 4c, serum deprived Hepa 1-6 cells (3×10^5) were overnight treated with 1 μg/ml of crosslinked mouse Fas ligand with or without AlphaMet or the indicated polypeptide. Media were collected and centrifuged to pellet the dead cells. […] The data in FIG. 4c represents three independent experiments.
Apoptosis assay. Pre-washed Jurkat cells in RPMI 1640 medium containing 1% FBS were inoculated in 96-wells at a density of 10^5 cells per well. Apoptosis was induced by cross-linked human Fas-ligand (R&D Systems) at a concentration of 0.5 ng/ml or Anti-Fas (human, activating) clone CH11 (Upstate biotechnology) at a concentration of 500 ng /ml. Hepa 1-6 cells were overnight starved before induction of apoptosis. The apoptosis in Hepa 1-6 was induced by anti-mouse Fas antibody Jo2 (200 ng/ml) or human recombinant Fas-ligand. The extent of cell viability and apoptosis was determined by several methods such as Trypan Blue stain, flow cytometry, LDH assay, and Hoechst staining.
In general terms: In flow cytometry, cells or beads pass a laser one at a time.

B1: alpha subunit of Met (AlphaMet), amino acid residues 1 to 306, His-tagged (receptor, mouse)
chain: MKAPTVLAPGILVLLLSLVQRSHGECKEALVKSEMNVNMKYQLPNFTAETPIQNVVLHGHHIYLGATNYIYVLNDKDLQKVSEFKTGPVLEHPDCLPCRDCSSKANSSGGVWKDNINMALLVDTYYDDQLISCGSVNRGTCQRHVLPPDNSADIQSEVHCMFSPEEESGQCPDCVVSALGAKVLLSEKDRFINFFVGNTINSSYPPGYSLHSISVRRLKETQDGFKFLTDQSYIDVLPEFLDSYPIKYIHAFESNHFIYFLTVQKETLDAQTFHTRIIRFCSVDSGLHSYMEMPLECILTEKRRKRHHHHHH
In the case of B1, in assay [1], the death rate of Jurkat cells treated with Fas-ligand (Trypan Blue) was 12% and the sub-G1 population of Jurkat cells treated with Fas-ligand (Propidium Iodide, flow cytometry) stood at 8%. Also, the Fas trimerization result in assay [2] is recorded as “reduced the Fas trimerization to the background level”. Also, the death rate in the assay with Jurkat cells (Fas-ligand overnight, AlphaMet 5 μg/ml, Trypan Blue) was 12%. Moreover, in the assay on Jurkat cells (Propidium Iodide flow cytometry, Fas-ligand), the “sub-G1 (apoptotic) population” value is on record as 8%.

The record behind these values is US20070184522A1, “Cell death modulation via antagonists of Fasl and Fas activation” (University of Pittsburgh of the Commonwealth System of …, priority 2004, published 2007).
